The source of these data is patent US8889621B2, “Inhibiting binding of FGF23 to the binary FGFR-Klotho complex for the treatment of hypophosphatemia” (New York University, priority 2009, dated 2014).

For this assay, the system named is binary FGFR-Klotho complex. Briefly: Pull-down / co-precipitation of FGF23 proteins with FGFR-Klotho complex. The class given is binding. Particulars: HEK293-Klotho cell lysate. The method, then:
A pull-down assay may also be used to confirm the existence of a protein:protein interaction (i.e. FGF23^180-251 binding to the binary FGFR-Klotho complex). One aspect of the present invention utilizes pull-down assays. These assays involved subconfluent cultures of a HEK293 cell line ectopically expressing the FLAG-tagged membrane-spanning form of murine Klotho, which were harvested and lysed. Cell lysate was incubated with FGF23^28-251, FGF23^28-200, FGF23^28-179, FGF23^180-251, or protein sample buffer, and binary complexes of Klotho and endogenous FGFR were isolated from cell lysate using anti-FLAG M2 agarose beads. […]
In parallel, subconfluent HEK293-Klotho cells (Kurosu et al., “Regulation of Fibroblast Growth Factor-23 Signaling by Klotho,” J Biol Chem 281(10):6120-6123 (2006), which is hereby incorporated by reference in its entirety) were transfected with expression vectors for V5-tagged FGFR1c, FGFR3c, or FGFR4 (Kurosu et al., “Regulation of Fibroblast Growth Factor-23 Signaling by Klotho,” J Biol Chem 281(10):6120-6123 (2006), which is hereby incorporated by reference in its entirety) and binding of FGF23 proteins/peptides to Klotho-FGFR complexes isolated from cell lysate was analyzed. […]

Sequence of binary FGFR-Klotho complex (O35082 35-1014, one chain of several): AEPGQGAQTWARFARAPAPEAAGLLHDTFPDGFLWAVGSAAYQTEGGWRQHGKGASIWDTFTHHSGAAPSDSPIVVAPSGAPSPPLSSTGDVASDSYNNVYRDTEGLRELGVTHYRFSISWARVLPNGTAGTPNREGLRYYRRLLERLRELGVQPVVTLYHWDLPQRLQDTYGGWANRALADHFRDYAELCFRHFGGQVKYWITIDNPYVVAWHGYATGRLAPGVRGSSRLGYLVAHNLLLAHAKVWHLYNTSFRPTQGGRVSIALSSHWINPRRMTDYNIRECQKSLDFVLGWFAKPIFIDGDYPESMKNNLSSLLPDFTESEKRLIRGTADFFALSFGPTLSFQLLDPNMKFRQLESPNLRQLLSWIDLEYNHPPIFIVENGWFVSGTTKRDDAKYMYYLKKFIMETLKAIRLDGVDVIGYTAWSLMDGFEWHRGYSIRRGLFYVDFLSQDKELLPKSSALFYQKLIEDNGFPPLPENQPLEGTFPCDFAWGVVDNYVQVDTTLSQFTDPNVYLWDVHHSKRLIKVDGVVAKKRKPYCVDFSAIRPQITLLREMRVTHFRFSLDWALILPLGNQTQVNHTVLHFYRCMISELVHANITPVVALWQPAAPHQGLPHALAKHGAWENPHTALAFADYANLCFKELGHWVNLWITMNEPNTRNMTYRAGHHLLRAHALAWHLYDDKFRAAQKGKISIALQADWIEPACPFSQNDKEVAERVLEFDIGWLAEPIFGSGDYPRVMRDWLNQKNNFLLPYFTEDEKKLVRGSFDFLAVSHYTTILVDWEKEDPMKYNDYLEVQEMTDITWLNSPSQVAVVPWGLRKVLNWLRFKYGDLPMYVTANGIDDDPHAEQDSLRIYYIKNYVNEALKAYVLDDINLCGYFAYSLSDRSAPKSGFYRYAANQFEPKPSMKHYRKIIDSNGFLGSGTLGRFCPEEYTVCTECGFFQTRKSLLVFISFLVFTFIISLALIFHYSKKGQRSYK

B1: FGF23^180-251: 72-amino acid C-terminal tail of human FGF23 (S180 to I251), expressed in E. coli (protein, listed as Homo sapiens)
chain: SAEDDSERDPLNVLKPRARMTPAPASCSQELPSAEDNSPMASDPLGVVRGGRVNTHAGGTGPEGCRPFAKFI
With B1, the “co-precipitation with the binary FGFR-Klotho complex” value is given as “co-precipitated with each of the three binary FGFR-Klotho complexes”.
